T1: human TNFR1 on Kym-1, HeLa and HT1080 cells (human, UniProt P19438 30-455)
T1 sequence (looked up): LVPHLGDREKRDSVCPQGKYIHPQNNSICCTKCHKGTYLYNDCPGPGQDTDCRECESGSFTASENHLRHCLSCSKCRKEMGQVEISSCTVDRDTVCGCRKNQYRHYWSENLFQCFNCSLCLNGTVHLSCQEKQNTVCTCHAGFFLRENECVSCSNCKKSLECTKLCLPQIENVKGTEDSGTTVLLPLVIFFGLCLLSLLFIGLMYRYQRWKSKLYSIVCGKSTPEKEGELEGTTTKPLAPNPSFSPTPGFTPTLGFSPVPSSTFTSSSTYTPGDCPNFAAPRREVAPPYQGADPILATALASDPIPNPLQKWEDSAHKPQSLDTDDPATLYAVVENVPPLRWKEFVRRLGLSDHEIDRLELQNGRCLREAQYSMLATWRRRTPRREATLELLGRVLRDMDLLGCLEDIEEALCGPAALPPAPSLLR

T2: human TNFR1-Fc (human, UniProt P19438 29-211)
T2 construct: range 29-211; also called huTNFR1-Fc; recombinant human TNFR1-Fc fusion protein; not shown: human IgG1 Fc region (vector pSecTagL1-Fc)
T2 sequence (looked up): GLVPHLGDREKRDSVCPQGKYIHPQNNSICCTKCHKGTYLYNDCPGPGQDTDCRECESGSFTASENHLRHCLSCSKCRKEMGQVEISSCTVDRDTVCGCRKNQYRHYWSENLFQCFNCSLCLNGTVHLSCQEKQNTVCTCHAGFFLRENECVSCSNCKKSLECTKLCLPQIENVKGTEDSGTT

T3: rhesus TNFR1-Fc (rhesus; human, UniProt A0A1D5QSM0 27-209)
T3 construct: range 27-209; also called rheTNFR1-Fc; not shown: Fc of vector pSecTagL1-Fc (human IgG1 Fc is stated for the human TNFR1-Fc)
T3 sequence: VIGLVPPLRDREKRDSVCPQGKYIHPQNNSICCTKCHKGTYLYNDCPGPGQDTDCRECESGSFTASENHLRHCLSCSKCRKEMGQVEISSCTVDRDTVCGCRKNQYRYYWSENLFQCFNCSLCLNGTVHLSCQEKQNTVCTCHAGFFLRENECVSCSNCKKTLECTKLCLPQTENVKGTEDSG

T4: human TNFR1-Fas on transfected mouse embryonic fibroblasts (human, UniProt P19438 30-211; P25445 191-335, limits assumed)
T4 construct: extracellular domain;domain: intracellular domain; also called MEF-TNFR1-Fas
T4 sequence (looked up): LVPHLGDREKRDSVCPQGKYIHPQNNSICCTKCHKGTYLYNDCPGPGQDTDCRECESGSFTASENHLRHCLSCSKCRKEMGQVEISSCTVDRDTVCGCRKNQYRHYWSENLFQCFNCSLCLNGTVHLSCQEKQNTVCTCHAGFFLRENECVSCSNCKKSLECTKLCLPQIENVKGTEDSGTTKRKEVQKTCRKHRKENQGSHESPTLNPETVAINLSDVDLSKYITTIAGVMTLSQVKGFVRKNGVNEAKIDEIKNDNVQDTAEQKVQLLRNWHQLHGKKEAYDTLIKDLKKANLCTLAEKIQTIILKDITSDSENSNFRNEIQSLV

T5: mouse TNFR1-Fc (mouse; human, UniProt P25118 30-212)
T5 construct: range 30-212; also called moTNFR1-Fc; not shown: Fc of vector pSecTagL1-Fc (human IgG1 Fc is stated for the human TNFR1-Fc)
T5 sequence (looked up): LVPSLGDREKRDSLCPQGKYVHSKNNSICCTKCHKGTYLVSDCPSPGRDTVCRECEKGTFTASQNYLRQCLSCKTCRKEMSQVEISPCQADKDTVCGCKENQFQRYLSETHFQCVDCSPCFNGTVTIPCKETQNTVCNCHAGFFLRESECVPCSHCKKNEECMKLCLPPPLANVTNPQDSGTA

T6: chimeric human/mouse TNFR1-Fc construct 4 (human CRD1 substituted by the mouse domain) (mouse; human, UniProt P25118 30-82; P19438 83-211, limits assumed)
T6 construct: not shown: Fc of vector pSecTagL1-Fc
T6 sequence (looked up): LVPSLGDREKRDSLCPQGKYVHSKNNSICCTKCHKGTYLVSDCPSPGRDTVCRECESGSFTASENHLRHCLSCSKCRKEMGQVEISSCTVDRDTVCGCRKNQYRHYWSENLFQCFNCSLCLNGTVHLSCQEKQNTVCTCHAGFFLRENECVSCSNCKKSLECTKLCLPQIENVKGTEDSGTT

T7: chimeric human/mouse TNFR1-Fc construct 5 (A1 domain of CRD1 of human TNFR1 exchanged with the mouse sequence) (mouse; human, UniProt P25118 30-58; P19438 59-211, limits assumed)
T7 construct: not shown: Fc of vector pSecTagL1-Fc
T7 sequence (looked up): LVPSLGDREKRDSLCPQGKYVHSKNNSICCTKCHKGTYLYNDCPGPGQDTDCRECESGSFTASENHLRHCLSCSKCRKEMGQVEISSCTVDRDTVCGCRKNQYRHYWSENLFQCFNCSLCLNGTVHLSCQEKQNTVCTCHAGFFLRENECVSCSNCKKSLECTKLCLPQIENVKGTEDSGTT

T8: chimeric human/mouse TNFR1-Fc construct 3 (human CRD1 and 2 substituted by the mouse domains) (mouse; human, UniProt P25118 30-125; P19438 126-211, limits assumed)
T8 construct: not shown: Fc of vector pSecTagL1-Fc
T8 sequence (looked up): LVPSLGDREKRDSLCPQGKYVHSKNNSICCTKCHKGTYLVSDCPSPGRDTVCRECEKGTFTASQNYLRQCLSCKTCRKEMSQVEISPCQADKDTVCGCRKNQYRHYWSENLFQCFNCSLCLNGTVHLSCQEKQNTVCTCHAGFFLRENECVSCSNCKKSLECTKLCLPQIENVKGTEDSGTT

T9: chimeric human/mouse TNFR1-Fc construct 8 (mouse TNFR1 with human CRD1 and sub-domain A1 of CRD2) (human; mouse, UniProt P25118 100-212, limits assumed)
T9 construct: The label hl-2A1/m2B2-4 is tied to construct 8 by inference; also called chimeric TNFR1 hl-2A1/m2B2-4; not shown: Fc of vector pSecTagL1-Fc
T9 sequence: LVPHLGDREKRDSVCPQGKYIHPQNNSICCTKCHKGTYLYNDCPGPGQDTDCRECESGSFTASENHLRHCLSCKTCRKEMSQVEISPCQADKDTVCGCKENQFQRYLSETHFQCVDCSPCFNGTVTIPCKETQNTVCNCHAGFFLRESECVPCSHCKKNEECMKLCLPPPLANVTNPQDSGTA

T10: human TNFR2-Fas on transfected mouse embryonic fibroblasts (human, UniProt P20333 23-257; P25445 191-335, limits assumed)
T10 construct: extracellular domain;domain: intracellular domain; also called MEF-TNFR2-Fas
T10 sequence (looked up): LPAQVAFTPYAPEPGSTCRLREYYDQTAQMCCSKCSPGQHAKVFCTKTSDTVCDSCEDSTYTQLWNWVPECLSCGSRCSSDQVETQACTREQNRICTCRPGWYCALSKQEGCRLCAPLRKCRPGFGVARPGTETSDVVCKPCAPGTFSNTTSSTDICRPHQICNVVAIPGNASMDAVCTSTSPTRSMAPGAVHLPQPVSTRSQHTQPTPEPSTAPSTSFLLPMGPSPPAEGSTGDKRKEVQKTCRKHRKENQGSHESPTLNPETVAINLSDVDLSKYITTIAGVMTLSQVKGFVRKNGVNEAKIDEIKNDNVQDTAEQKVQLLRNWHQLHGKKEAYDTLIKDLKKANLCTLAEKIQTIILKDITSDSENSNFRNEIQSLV


Experiments:
[1] = target: T1, human TNFR1 on Kym-1, HeLa and HT1080 …; assay: cell-based or functional assay
human TNFR1-Fc = target: T2, human TNFR1-Fc; assay: quartz crystal microbalance, TNFR1-Fc immobilized
Method: (§1) Affinities of the antibodies were determined by quartz crystal microbalance measurements (QCM; Attana A-100 C-Fast system, Stockholm, Sweden). Binding experiments were performed in PBS 0.005% Tween 20 at a flow rate of 25 to 35 μl/min and temperature was controlled at 20° C. The TNFR1-Fc fusion proteins were chemically immobilized on an Attana carboxyl sensor chip by amine coupling at a concentration of 50 μg/ml according to the manufacturer's protocol resulting in a signal increase (frequency shift) of approximately 200 Hz. Antibodies were analyzed at concentration between 62.5 and 3.9 nM (4 measurements per concentration). The chip was regenerated with 10 mM glycine-HCl, pH 3.0. Buffer injections were performed prior to each sample injection to use as a reference in Attester Evaluation. Data were collected by Attester 3.0 (Version 3.1.1.8, Attana, Stockholm, Sweden) and analyzed by ClampXP (Myszka and Morton 1998). A mass transport model (Myszka 1997) was fitted to the data.

rhesus TNFR1-Fc = target: T3, rhesus TNFR1-Fc; assay: quartz crystal microbalance, TNFR1-Fc immobilized
Method: as §1

[2] = target: T4, human TNFR1-Fas on transfected mouse …; assay: flow cytometry, titration on MEF-TNFR1-Fas cells
Method: (§2) Binding to TNFR1-Fas or TNFR2-Fas transfected MEF cells was analyzed by flow cytometry. Cells (2×105) were incubated with dilution series of antibodies for 4 h at 4° C. Cells were then washed with PBS and bound antibodies were detected with PE-labeled goat anti-mouse or anti-human antibody. Cells were analyzed by flow cytometry (Cytomics FC 500, Beckmann-Coulter, Krefeld, Germany). Data were evaluated with the program WinMDI, version 2.9, and fitted with GraphPrism software (La Jolla, USA) from 3 independent binding curves.

mouse TNFR1-Fc = target: T5, mouse TNFR1-Fc; assay: ELISA on coated TNFR1-Fc (100 ng/well)
Method: (100 ng/well). Binding was detected by HRP-conjugated anti-molgG (Fc-specific) antibody or anti-human Fab antibody, respectively. Binding of an anti-human Fc antibody (anti-Fc) was included as coating control.

[3] = target: T6, chimeric human/mouse TNFR1-Fc construct …; assay: ELISA on chimeric TNFR1-Fc
Method: (§3) Antibodies (0.1 nM) were analyzed by ELISA for binding to the TNFR1-Fc fusion proteins. […] Cysteine residues are marked with grey boxes and the 2 positions (P23, Q24) analyzed by site-directed mutagenesis are marked by asterisks.

[4] = target: T7, chimeric human/mouse TNFR1-Fc construct …; assay: ELISA on chimeric TNFR1-Fc
Method: as §3

[5] = target: T8, chimeric human/mouse TNFR1-Fc construct …; assay: ELISA on chimeric TNFR1-Fc
Method: as §3

[6] = target: T9, chimeric human/mouse TNFR1-Fc construct …; assay: ELISA on chimeric TNFR1-Fc, antibody 0.1 nM
Method: as §3

[7] = target: T10, human TNFR2-Fas on transfected mouse …; assay: flow cytometry on transfected MEF cells
Method: as §2

IC50, inhibition of TNF-induced IL-6 release from HeLa cells [1] [nM]	IC50, inhibition of TNF-induced IL-8 release from HT1080 cells [1] [nM]	Kd (human TNFR1-Fc) [nM]	koff (human TNFR1-Fc) [s⁻¹]	kon (human TNFR1-Fc) [M⁻¹ s⁻¹]	Kd (rhesus TNFR1-Fc) [nM]	koff (rhesus TNFR1-Fc) [s⁻¹]	kon (rhesus TNFR1-Fc) [M⁻¹ s⁻¹]	EC50 [2] [nM]	binding result (mouse TNFR1-Fc)	binding result [3]	binding result [4]	binding result [5]	binding result [6]	binding result [7]	Binder
6	6	0.23	7e-05	310000	0.49	0.0001	210000	~0.1							H398 (antibody, V domains shown) VH: QVQLQESGAELARPGASVKLSCKASGYTFTDFYINWVKQRTGQGLEWIGEIYPYSGHAYYNEKFKAKATLTADKSSSTAFMQLNSLTSEDSAVYFCVRWDFLDYWGQGTTLTVSS VL: DIVMTQSPLSLPVSLGDQASISCRSSQSLLHSNGNTYLHWYVQKPGQSPKLLIYTVSNRFSGVPDRFSGSGSGTDFTLKISRVEAEDLGVYFCSQSTHVPYTFGGGTKLEIK
60	60	0.35	0.00013	380000	0.1	6.7e-05	690000	~0.1	no binding (tested: 5 ug/ml)	no binding (tested: 0.1 nM)	no binding (tested: 0.1 nM)	no binding (tested: 0.1 nM)	binds	no binding	ATROSAB (antibody, human IgG1, kappa, V domains shown, Humanized full-length human IgG1 made in CHO cells; Effector-deficient Fc (IgG1e3: E233P/L234V/L235A/deltaG236, A327G/A330S/P331S), allotype G1m-1,17; also called IZI-06.1 IgG; humanized H398 IgG1) VH: QVQLVQSGAEVKKPGSSVKVSCKASGYTFTDFYINWVRQAPGQGLEWIGEIYPYSGHAYYNEKFKARVTITADKSTSTAYMELSSLRSEDTAVYYCARWDFLDYWGQGTTVTVSS VL: DIVMTQSPLSLPVTPGEPASISCRSSQSLLHSNGNTYLHWYLQKPGQSPQLLIYTVSNRFSGVPDRFSGSGSGTDFTLKISRVEAEDVGVYYCSQSTHVPYTFGGGTKVEIKR
